Results reported in the Immune Epitope Database (IEDB).

How the values were obtained:
HLA-A*02:01 [1] = test: IEDB peptide-MHC binding, purified MHC/competitive/fluorescence; filed as Kd, often an IC50 or EC50 that approximates it; ≥ and ≤ were set here for values at or beyond the usual limits of such assays; conditions: source organism: Human immunodeficiency virus 1
HLA-A*02:03 [2] = test: as above; conditions: source organism: Human immunodeficiency virus 1
HLA-A*02:06 = test: as above; conditions: source organism: Human immunodeficiency virus 1
HLA-A*26:01 [3] = test: as above; conditions: source organism: Human immunodeficiency virus 1
HLA-A*26:02 = test: as above; conditions: source organism: Human immunodeficiency virus 1
HLA-A*30:01 = test: as above; conditions: source organism: Human immunodeficiency virus 1
HLA-A*68:02 [4] = test: as above; conditions: source organism: Human immunodeficiency virus 1
HLA-B*07:02 [5] = test: as above; conditions: source organism: Human immunodeficiency virus 1
HLA-B*08:01 = test: as above; conditions: source organism: Human immunodeficiency virus 1
HLA-B*15:09 = test: as above; conditions: source organism: Human immunodeficiency virus 1
HLA-B*73:01 = test: IEDB peptide-MHC binding, purified MHC/direct/fluorescence; filed as Kd, often an IC50 or EC50 that approximates it; ≥ and ≤ were set here for values at or beyond the usual limits of such assays
HLA-B*15:42 = test: IEDB peptide-MHC binding, purified MHC/competitive/fluorescence; filed as Kd, often an IC50 or EC50 that approximates it; ≥ and ≤ were set here for values at or beyond the usual limits of such assays; conditions: source organism: Homo sapiens
HLA-B*45:06 = test: as above; conditions: source organism: Homo sapiens
HLA-B*83:01 = test: as above; conditions: source organism: Homo sapiens
HLA-B*27:05 = test: IEDB peptide-MHC binding, purified MHC/direct/fluorescence; filed as Kd, often an IC50 or EC50 that approximates it; ≥ and ≤ were set here for values at or beyond the usual limits of such assays; conditions: source organism: Yersinia enterocolitica
HLA-B*48:01 = test: as above; conditions: source organism: Yersinia enterocolitica
HLA-A*02:03 [6] = test: as above
HLA-A*02:11 = test: as above
HLA-A*02:12 = test: as above
HLA-A*02:16 = test: as above
HLA-A*02:19 = test: as above
HLA-A*03:01 = test: as above
HLA-A*24:03 = test: as above
HLA-A*26:01 [7] = test: as above
HLA-A*68:02 [8] = test: as above; conditions: source organism: Cryptosporidium parvum Iowa II
HLA-A*69:01 = test: as above
HLA-B*15:01 = test: as above
HLA-B*15:17 = test: as above; conditions: source organism: Cryptosporidium parvum Iowa II
HLA-B*18:01 = test: as above
HLA-B*27:03 = test: as above
HLA-B*39:01 = test: as above
HLA-B*46:01 = test: as above
HLA-B*51:01 = test: as above
HLA-B*57:01 = test: as above
HLA-C*06:02 = test: as above
HLA-C*14:02 = test: as above; conditions: source organism: Human immunodeficiency virus 1
HLA-C*15:02 = test: as above; conditions: source organism: Human immunodeficiency virus 1
HLA-A*02:01 [9] = test: as above
HLA-A*29:02 = test: as above
HLA-B*07:02 [10] = test: as above; conditions: source organism: Mycobacterium tuberculosis str. Haarlem
HLA-B*35:01 = test: as above; conditions: source organism: Mycobacterium tuberculosis str. Haarlem
[11] = source organism: Cryptosporidium parvum Iowa II
[12] = source organism: Mycobacterium tuberculosis str. Haarlem

Question: Which Kd (HLA-A*02:01 [1]) does the source give for EIKSLFNTI here?
Answer: The Kd was at least 20 µM.

Question: And the Kd (HLA-A*02:03 [2])?
Answer: Its Kd is at least 20 µM.

Question: And the Kd (HLA-A*02:06)?
Answer: The Kd was 0.0617 µM.

Question: What about the Kd (HLA-A*26:01 [3]) of the same sequence?
Answer: Its Kd is at least 20 µM.

Question: And the Kd (HLA-A*26:02)?
Answer: The Kd was at least 20 µM.

Question: And the Kd (HLA-A*30:01)?
Answer: Its Kd is at least 20 µM.

Question: What about the Kd (HLA-A*68:02 [4]) of the same sequence?
Answer: Its Kd is 0.036 µM.

Question: And the Kd (HLA-B*07:02 [5])?
Answer: The Kd was 6 µM.

Question: And the Kd (HLA-B*08:01)?
Answer: The Kd was 1.62 µM.

Question: And the Kd (HLA-B*15:09)?
Answer: Its Kd is at least 20 µM.

Question: How did the Kd (HLA-B*73:01; source organism: Homo sapiens) turn out when YEHYFVFAA was run?
Answer: The Kd was 0.0226 µM.

Question: And the Kd (HLA-B*15:42)?
Answer: Its Kd is at least 5 µM.

Question: What about the Kd (HLA-B*45:06) of the same sequence?
Answer: The Kd was 0.379 µM.

Question: And the Kd (HLA-B*83:01)?
Answer: The Kd was at least 5 µM.

Question: What does the source list for YRLVSAVEK?
Answer: Kd (HLA-B*27:05): 0.0299 µM; Kd (HLA-B*48:01): ≥ 20 µM; Kd (HLA-B*73:01; source organism: Yersinia enterocolitica): ≥ 20 µM

Question: Which results are given for ILTRLALFF?
Answer: Kd (HLA-A*02:03 [6]; [11]): ≥ 20 µM; Kd (HLA-A*02:11; [11]): ≥ 20 µM; Kd (HLA-A*02:12; [11]): ≥ 20 µM; Kd (HLA-A*02:16; [11]): ≥ 20 µM; Kd (HLA-A*02:19; [11]): ≥ 20 µM; Kd (HLA-A*03:01; [11]): ≥ 20 µM; Kd (HLA-A*24:03; [11]): ≥ 20 µM; Kd (HLA-A*26:01 [7]; [11]): ≥ 20 µM; Kd (HLA-A*68:02 [8]): ≥ 20 µM; Kd (HLA-A*69:01; [11]): ≥ 20 µM; Kd (HLA-B*15:01; [11]): ≥ 20 µM; Kd (HLA-B*15:17): ≥ 20 µM; Kd (HLA-B*18:01; [11]): ≥ 20 µM; Kd (HLA-B*27:03; [11]): ≥ 20 µM; Kd (HLA-B*39:01; [11]): ≥ 20 µM; Kd (HLA-B*46:01; [11]): ≥ 20 µM; Kd (HLA-B*51:01; [11]): ≥ 20 µM; Kd (HLA-B*57:01; [11]): ≥ 20 µM

Question: What does the source list for RMYSPVSIL?
Answer: Kd (HLA-C*06:02; source organism: Human immunodeficiency virus 1): 3.11 µM; Kd (HLA-C*14:02): 0.701 µM; Kd (HLA-C*15:02): 0.686 µM

Question: How did the Kd (HLA-A*02:01 [9]; [11]) turn out when DHIPIINTL was run?
Answer: The Kd was at least 20 µM.

Question: And the Kd (HLA-A*02:03 [6]; [11])?
Answer: The Kd was at least 20 µM.

Question: And the Kd (HLA-A*02:11; [11])?
Answer: Its Kd is at least 20 µM.

Question: And the Kd (HLA-A*02:12; [11])?
Answer: The Kd was at least 20 µM.

Question: And the Kd (HLA-A*02:16; [11])?
Answer: Its Kd is at least 20 µM.

Question: And the Kd (HLA-A*02:19; [11])?
Answer: The Kd was at least 20 µM.

Question: What about the Kd (HLA-A*03:01; [11]) of the same sequence?
Answer: Its Kd is at least 20 µM.

Question: And the Kd (HLA-A*24:03; [11])?
Answer: The Kd was at least 20 µM.

Question: What about the Kd (HLA-A*26:01 [7]; [11]) of the same sequence?
Answer: Its Kd is at least 20 µM.

Question: What about the Kd (HLA-A*29:02; [11]) of the same sequence?
Answer: Its Kd is at least 20 µM.

Question: What about the Kd (HLA-A*68:02 [8]) of the same sequence?
Answer: The Kd was at least 20 µM.

Question: And the Kd (HLA-A*69:01; [11])?
Answer: Its Kd is at least 20 µM.

Question: What about the Kd (HLA-B*15:01; [11]) of the same sequence?
Answer: Its Kd is at least 20 µM.

Question: And the Kd (HLA-B*15:17)?
Answer: The Kd was at least 20 µM.

Question: And the Kd (HLA-B*18:01; [11])?
Answer: The Kd was at least 20 µM.

Question: And the Kd (HLA-B*27:03; [11])?
Answer: Its Kd is at least 20 µM.

Question: What about the Kd (HLA-B*46:01; [11]) of the same sequence?
Answer: Its Kd is at least 20 µM.

Question: And the Kd (HLA-B*51:01; [11])?
Answer: Its Kd is at least 20 µM.

Question: What about the Kd (HLA-B*57:01; [11]) of the same sequence?
Answer: The Kd was at least 20 µM.

Question: For YLYDETQDV, which Kd (HLA-A*02:03 [6]; [12]) is on record?
Answer: The Kd was 0.002 µM.

Question: And the Kd (HLA-A*02:12; [12])?
Answer: The Kd was 0.006 µM.

Question: What about the Kd (HLA-A*69:01; source organism: Mycobacterium tuberculosis) of the same sequence?
Answer: Its Kd is 1.24 µM.

Question: What about the Kd (HLA-C*06:02; source organism: Mycobacterium tuberculosis variant bovis BCG str. Pasteur 1173P2) of the same sequence?
Answer: The Kd was 0.041 µM.

Question: What does the source list for WASGVPAAT?
Answer: Kd (HLA-A*02:01 [9]; [12]): ≥ 20 µM; Kd (HLA-A*02:03 [6]; [12]): ≥ 20 µM; Kd (HLA-A*02:11; [12]): ≥ 20 µM; Kd (HLA-A*02:12; [12]): ≥ 20 µM; Kd (HLA-A*02:16; [12]): ≥ 20 µM; Kd (HLA-A*02:19; [12]): ≥ 20 µM; Kd (HLA-A*03:01; [12]): ≥ 20 µM; Kd (HLA-A*24:03; [12]): ≥ 20 µM; Kd (HLA-A*26:01 [7]; [12]): ≥ 20 µM; Kd (HLA-A*29:02; [12]): ≥ 20 µM; Kd (HLA-B*07:02 [10]): 6.5 µM; Kd (HLA-B*15:01; [12]): ≥ 20 µM; Kd (HLA-B*18:01; [12]): ≥ 20 µM; Kd (HLA-B*27:03; [12]): ≥ 20 µM; Kd (HLA-B*35:01): 0.317 µM; Kd (HLA-B*39:01; [12]): ≥ 20 µM; Kd (HLA-B*46:01; [12]): ≥ 20 µM; Kd (HLA-B*51:01; [12]): ≥ 20 µM; Kd (HLA-B*57:01; [12]): ≥ 20 µM
